From patent US20220002363A1, “COMPOSITIONS AND METHODS FOR TREATING PULMONARY DISEASE” (United States Government As Represented By The Department …, priority 2020, published 2022)
Entries after “also recorded” stand apart in the source; their conditions may differ.

Legend:
WT-sFasL = target: T1, WT-sFasL (Homo sapiens, UniProt P48023); assay: Attenuation of WT-sFasL-induced caspase 3/7 activity in primary human small airway epithelial cells (SAEC); type: cell-based; conditions: for inhibitory effect on ability of WT-sFasL to induce caspase 3-7 activity: at higher molar ratios than in Jurkat
T1 construct: made in house
T1 sequence (P48023 103-281): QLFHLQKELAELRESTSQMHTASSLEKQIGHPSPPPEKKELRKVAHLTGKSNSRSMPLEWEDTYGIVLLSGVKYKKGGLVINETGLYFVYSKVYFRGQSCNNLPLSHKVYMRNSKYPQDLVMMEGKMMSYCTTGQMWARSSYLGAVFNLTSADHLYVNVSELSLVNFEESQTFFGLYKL
Experimental: FIGS. 2A-D show the mut-sFasL has inhibitory properties. Highly Fas-sensitive Jurkat cells (FIG. 2A), primary human lung small airway epithelial cells (SAEC, FIG. 2B) or murine lung epithelial cells (LA4, FIG. 2D) were incubated with serial dilutions of mutated FasL, (mut sFasL). […] As a confirmatory test, the experiment was repeated using SAEC and an annexin-V translocation assay (FIG. 2C). WT=wild type (no mutant). […] Each dot represents individual data; lines represent means±SD. *=P<0.05; **=P<0.01, ***P<0.001 when compared to WT. One way ANOVA with SIdak's post hoc analysis.
Small airway epithelial cells (SAEC) are primary human cells isolated from the 1-mm bronchiole area of normal human lung tissue, and were purchased from Lonza (Walkersville, Md., catalogue number CC-2547, lot number 0000669507). Cells used came from a single donor and confirmed mycoplasma-free by the vendor. Cells were grown at 37° C., 5% CO2 in small airway epithelial basal medium (SAGM, Lonza, Cat #CC-3119 CC-3119) supplemented with SAGM SingleQuots (Lonza, catalogue number CC-4124), and used between passages 2 and 4.
(§1) Measurements of apoptotic cascade activation. Apoptotic cascade activation was assessed by determining caspase 3/7 activity and Annexin V externalization. Caspase-3/7 activity was measured using a commercial substrate (Caspase-Glo 3/7 Assay, Promega, Madison, Wis., Cat #G8090) following manufacturer's instructions. Annexin V was measured with a luminescent commercial assay that allows for measurement of annexin V externalization in adherent cells (RealTime-Glo Annexin V assay, Promega, Madison, Wis., Cat #JA1011). Luminescence was measured with a Synergy H4 Microplate Reader (BioTek, Winooski, Vt.).
The mut-sFasL attenuates the activity of WT-sFasL. Then, the caspase 3/7 activity of Jurkat cells incubated with different molar ratios of WT and mut-sFasL was investigated. […] The molar mixtures on primary human small airway epithelial cells (SAEC) were tested. These cells are commercially isolated from the distal airways of human lungs. […]

Fas = target: T2, Fas (Homo sapiens, UniProt P25445); assay: Caspase 3/7 activity in Jurkat cells with Fas-activating antibody CH-11 and mut-sFasL at different molar ratios; type: cell-based; conditions: 5-hour incubation
T2 construct: host or cells: Jurkat (human leukemic T lymphocytes)
T2 sequence (P25445 26-335): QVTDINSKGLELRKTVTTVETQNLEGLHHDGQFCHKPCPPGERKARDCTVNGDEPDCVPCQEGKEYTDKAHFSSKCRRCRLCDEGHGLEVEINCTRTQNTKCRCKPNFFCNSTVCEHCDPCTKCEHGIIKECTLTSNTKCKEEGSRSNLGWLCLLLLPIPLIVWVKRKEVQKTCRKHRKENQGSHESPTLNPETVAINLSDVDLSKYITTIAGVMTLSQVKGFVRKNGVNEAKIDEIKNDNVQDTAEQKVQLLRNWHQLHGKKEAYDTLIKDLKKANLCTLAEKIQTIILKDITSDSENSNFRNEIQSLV
Experimental: The mixtures were incubated for 2 hours in 96-well plates pre-coated with recombinant hsFas (250 ng/ml). After washing unbound material, biotin was detected using HRP conjugated Streptavidin. […] The sFasL bound to Fas was detected using polyclonal anti-human FasL antibodies. […] Different molar ratios of the Fas-activating antibody CH-11 and mut-sFasL were added, and caspase 3/7 activity measured after 5 hours. […] Data represent the results from three separate experiments, each done in duplicate, and were analyzed by 2-way ANOVA with Sidak's post hoc analysis. […] Each dot represents individual data; lines represent means±SD. *=P<0.05; **=P<0.01, ***P<0.001.
Antibodies and Reagents. […] FLAG tagged mut-sFasL was detected using HRP anti-FLAG monoclonal antibody (Sigma-Aldrich, Cat #A85920). […]
as §1, with “Vt.). […]” for “Vt.).”

B1: mut-sFasL: mutant sFasL molecule in which 8 charged amino acids in the 26 amino acid stalk region were changed to alanine (protein)
chain: QLFALQAALAALAASTSQMATASSLAKQIGHPSPPPEKKELRKVAHLTGKSNSRSMPLEWEDTYGIVLLSGVKYKKGGLVINETGLYFVYSKVYFRGQSCNNLPLSHKVYMRNSKYPQDLVMMEGKMMSYCTTGQMWARSSYLGAVFNLTSADHLYVNVSELSLVNFEESQTFFGLYKL
WT-sFasL; WT:mut sFasL molar ratios of 1:27 and 1:81
  caspase 3/7 activity: significantly reduced caspase 3/7 activity
WT-sFasL
  inhibitory effect on ability of WT-sFasL to induce caspase 3-7 activity: inhibitory effect
WT-sFasL; listed as 8-mutant protein
  inhibitory effect on ability of WT-sFasL to induce caspase 3-7 activity: an inhibitory effect of the 8-mutant protein was detected
Fas
  effect on CH11 activity at very high molar ratios: increased CH11 activity
Fas; different molar ratios of mut-sFasL and antibody
  effect on caspase 3/7 activation induced by CH11: did not attenuate the caspase 3/7 activation induced by CH11; also recorded: did not inhibit the activity of CH11
